The record followed here is patent US10774143 (LA JOLLA INSTITUTE FOR ALLERGY AND IMMUNOLOGY, dated 2020).

Test [1] addresses SWAP-70-like adaptor of T cells (SLAT), endogenous mouse protein (mouse) (UniProt Q8C2K1). As to the kind of experiment: cell-based or functional assay.
Test [2] shares this target. The test is described as follows: co-IP of SLAT and IP3R1 from CD4+ T cells pre-incubated with TAT protein, densitometry against control TAT-HA.
Test [3] addresses T1, Flag-tagged IP3R1-f2.1 (residues 346-490) (Homo sapiens (Human), UniProt Q14643 346-490).
T1 construct: not shown: Flag tag
As to the kind of experiment: co-IP from Jurkat-TAg cells cotransfected with Flag-IP3R1-f2.1.

With “TAT-HA-2.1 Δ18 fusion protein (TAT-HA fused to IP3R1 residues 346-490 deleted of residues 400-417) (from UniProt Q14643 346-490)”, the anti-CD3/CD28-stimulated IFNγ production by CD4+ T cells (ELISA), reduction in test [1] lay within 15 to 20%. In test [2], the percent reduction of the SLAT-IP3R1 interaction was 20%.

B1: Myc-tagged SLAT putative EF-hand domain (other)
chain: MALRKELLKSIWYAFTALDVEKSGKVSKSQLKVLSHNLYTVLHIPHDPVALEEHFRDDDDGPVSSQGYMPYL
notes: not shown: Myc tag downstream of the insert (pEF-Myc-His A/C vector)
In the case of B1, the binding result in test [3] is “binds”.
